Experimental data as given in the nanobody polyreactivity screen of Harvey et al. (2022).

Assay: yeast display, Sf9 membrane polyspecificity reagent, FACS + sequencing; frameworks hold sequencing errors
Outline: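 Nanobodies from a synthetic yeast display library (Saccharomyces cerevisiae BJ5465), induced 36–48 hours with galactose, were stained 1 hour at 4 °C with 10% biotinylated, detergent-solubilized Sf9 membrane reagent, enriched on streptavidin microbeads, then FACS-sorted. Anti-HA (expression) and streptavidin (reagent binding) fluorescence set low and high (top ~1%) gates. Polyreactivity labels come from the gate of origin. Genes were colony-PCR amplified, MiSeq 2 × 250 sequenced and filtered by CDR length.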

In the case of “QVQLVVSGGGLVQAGGSLRLSCAASGFTFRYYAMGWYRQAPGKEREMVAAITRGAGSTYYADSVKGRFTITRDNAKNTVYLQMNSLKPEDTAVYYCAAEFFQYYVATPFDPYNYWGQGTQVTVSS”, the “polyreactivity (PSR sort gate)” value is reported as “low polyreactivity”.
In the case of “QVQLVESGRGLVQAGGSLRLSCAASGGTFGNNDMGWYRQAPGKERELVAAIRSAGTTYYADSVKGRFTISRDNAKNTVYLQMNSLKPEDTAVYYCNAYTTGYWSYGFQYYGEDYWGQGTQVTVSS”, the “polyreactivity (PSR sort gate)” value is reported as “low polyreactivity”.
In the case of “QVQLVESGGGLVQAGGSLRLSCAASGSTSIYYTMGWYRQAPGKERELVAAITRGGRTYYADSVKGRFTISRDNAKNTVYLQMNSLKPEDTAVYYCAATTYLVWGYNYWGQGTQVTVSS”, the “polyreactivity (PSR sort gate)” value is reported as “low polyreactivity”.
With “QVQLVESGGGLVQAGGSLRLSCAASGSISGYYAMGGYRQAPGKERELVASIRYTGARTYYADSVKGRFTISRDNAKNTVYLQMNSLKPEDTAVYYCAADVKRDRVWGGDYWGQGTQVTVSS” the “polyreactivity (PSR sort gate)” value was “low polyreactivity”.
With “QVQLVESGGGLVQAGGSLRLSCAASGSIFRIYAMGWYRQAPGKERELVAAITKRGGSTYYADSVKGRFTISRDNAKNTVYLQMNSLKPEDTAVYYCAARFYSGYSYDYWGHGTQVTVSS” the “polyreactivity (PSR sort gate)” value was “high polyreactivity”.
For “QVQLVESGGGLVQAGGSLRLSSAASGRIFVYNAMGWYRQAPGKERELVAGISWSGARSHYADSVKGRFTISRDNAKKTVYLLMNSLKPEDTAVYYCAAYPQYRSFQYDYWGQGTQVTVSS”, the “polyreactivity (PSR sort gate)” value was “high polyreactivity”.
With “QVHLVESGGGLVQAGGSLRLSCAPSGNIFFSNAMGWYRQAPGKERELVASISQSGGSTYYADSLKGRFTISRDNAKNTVYFQMNSLKPEDTAVYYCNAFSITFYDFNSWGQGTQVTVSS” the “polyreactivity (PSR sort gate)” value was “low polyreactivity”.
For “QVQLVESGRGLVQAGGSLRLSCAASGRTFYSNTMGWSRQAPGKERELVAVISNGGSTYYADSVKGRFTISRDNAKYTVYLQMNSLKPEETAVYYCAARSRDRYRGNYWGQGTQVTVSS”, the “polyreactivity (PSR sort gate)” value was “high polyreactivity”.
In the case of “QVQHVESRGGLVQAGGSLRLSCAASGFILYLNAMGWYRQAPGKERELVAAITSDGGSTYYADSVKGRFTISRDNAKNTVYLQMNSLKPEDTAVYYCAADNYPDEYDYWGQGTQVTVSS”, the “polyreactivity (PSR sort gate)” value is reported as “low polyreactivity”.
With “QVQLVESGGGLVQAGGSLRLSCAASGSIFDVNAMGWYRQAPGKEREFVASITWSGGSTYYADSVKGRFTISRDNAKNTVYLQMNSLKPEDTAVYYCAARPVWVSGYLQYVYCGQGTQVTVSS” the “polyreactivity (PSR sort gate)” value was “low polyreactivity”.
With “QVQLVESGGGLVQAGGSLRLSCAASGSILYVYAMGWYRQAPGKERELVAAISFSGGSTYYADSVKGRFTISRDNAKNTVYLQMNSLKPEDTAVYYCAAALGPGAWYGDKYEYEYWGQGTQVTVSS” the “polyreactivity (PSR sort gate)” value was “low polyreactivity”.
With “QVQLVESGGGLVQAGGSLRLSCAASGFTFHWYAMGWYRQAPGKERELVAAISSGSSTYYADSVKGRFTISRDNAKNTVYLQMKSLKPEDTAVYYCNVVLYKYSPTESWITYDYWGQGTQVTVSS” the “polyreactivity (PSR sort gate)” value was “low polyreactivity”.
In the case of “QVQLVESGGGLVQAGGSLRLSCAASGRIFLFYAMGWYRQAPGKERELVAAISSTDDTYYADSVKGRFTISRDNAKNTVYLQMNSLKPEDTAVYYCAAYSIISQSEMYYWGQGTQVTVSS”, the “polyreactivity (PSR sort gate)” value is reported as “low polyreactivity”.
In the case of “QVQLVESGGGLVQAGGSLRLSCAASGYILWNAIGWYRQAPGKERELVAAITSGGSTYYADSVKGRFSISRDNAKNTVYLQMNSRKPEDTAVYDCNQESYFDTYRRYDSWGQGTQETVSS”, the “polyreactivity (PSR sort gate)” value is reported as “low polyreactivity”.
With “QVQLVESGGGLVQAGGSLRLSSAASGRTFHANAMGWYRQAPGKERELVARINWSGTSTYYADSVKGRFTISRDNAKNTVYLQMNSLKPEDTAVYYCAAGWIRLYSSLYDYWGQGTQVTVSS” the “polyreactivity (PSR sort gate)” value was “high polyreactivity”.
With “QVQLVESGGGLVKAGGILRLSCAASGSTFWKYAMGWYRQAPGKERELVAAINSGGSTYYADSVKGRFTISRDNAKNTVYLQMNSLKPEDTAVYYCAAVYVDRRKRSYYWGQGTQVTVSS” the “polyreactivity (PSR sort gate)” value was “high polyreactivity”.
For “QVQLVESGGGLVQAGGSLRLSCAASGSTFSQNAMGWYRQAPGKERELVAVISSSGGRTNYADSVKGRFTISRDNAKNTVYLQMNSLKPEDTSVYYCAKRLRVLYYYWGQGTQVTVSS”, the “polyreactivity (PSR sort gate)” value was “high polyreactivity”.
For “QVQLVESGGGLVQAGGSLRLSCAASGRIFKYYAMGWYRQAPGKERELVAAISRSGGRTYYADSVKGRFTISRDNAKNTVYLQMNSLKPEDTAVYYCNARVYSGHNYWGQGTQVTVSS”, the “polyreactivity (PSR sort gate)” value was “high polyreactivity”.
With “QVQLVESGGGLVQAGGSLRLSCAASGYTFQYYTMGWYRQAPGKERELVAAISSSGGRTYYADSVKGRFTISRDNAKNTVYLQMNSLKPEDTAVYYCAATYSYRSDYYSWGQGTQVTVSS” the “polyreactivity (PSR sort gate)” value was “high polyreactivity”.
In the case of “QVQLVESGGGIVQAGGSLRLSCAASGRTLSKNAMGWYRQAPGKERELVATISSVGRTNYADSVKGRFTISRDNAKNTVYLQMNSLKPEDTAVYNCAARRFRGSYYWGQGTQVTVSS”, the “polyreactivity (PSR sort gate)” value is reported as “high polyreactivity”.
In the case of “QVQLVESGGGLDQAGGSLRLSCAASGRTFQGYAMGWYRQAPGKERELVAAISRSGGRTYYADSVKGRFTISRDNAKNTVYLQMNSLKPEATAVYFCATDAFRDYGYWGQGTQVTLSS”, the “polyreactivity (PSR sort gate)” value is reported as “high polyreactivity”.
With “QVQLVESGGGLVQAGGSLRLSCAASGYTFPKYAMGWYRQAPGKERELVAAITKRGGRTYYADSVKGRFTISRDNAKNTVYLQMNSLKPEDTAVYYCAVDLDGPEYSQVHYDYWGQGTQVTVSS” the “polyreactivity (PSR sort gate)” value was “high polyreactivity”.
With “QVQLVESGGGLVHAGGSLRLSCAASGSIFGRYVMGWYRQAPGKERELVAAITRSGGSTYYADSVKGRFTISRDNAKNTVYLQMNSLKPEDTAVYYCNADVNFIDDDYWGHGTQVTVSS” the “polyreactivity (PSR sort gate)” value was “low polyreactivity”.
With “QVQLVESGGGLVQAGGSLRLSCAASGSTFFVNAMGWYRQAPGKERELVASITVSSGRTYYADSVKGRFTISRDNAKNTVYLQMNSLKPEDTAVYYCAARHLYWRREGYYWGQGTQVTVSS” the “polyreactivity (PSR sort gate)” value was “high polyreactivity”.
With “QVQLVESGGGLVQAGGSLRLSCAASGFIFYRYVMGWYRQAPGKERELVAAITWSGGSTYYADSVKGRFTISRDNAKNTVYLQMNSLKPEDTAVYYCAAEWWLPSFGMDYWGQGTQVTVSS” the “polyreactivity (PSR sort gate)” value was “low polyreactivity”.
For “QVQLVESGGGLVQAGGSLRLSCAASGSIFPAYDMGWYRQAPGKERELVAAIDRGGSTYYADSVKGRFTISRDNAKNTVYLQMNSLKPEDTAVYYCATDGQEYPNYISSAGFDYWGQGTQVTVSS”, the “polyreactivity (PSR sort gate)” value was “low polyreactivity”.
In the case of “QVQLVESGGGLVQAGGSLRLSCAASGSTFRPYAMGWYRQAPGKERELVAAISSGDSTYYADSVKGRFTISRDNAKNTVYLQMNSPKREDTAVYYCAKRNYWHRGGGYWGQGTQVTVSS”, the “polyreactivity (PSR sort gate)” value is reported as “high polyreactivity”.
For “QVQLVESGGGLVQAGGSLRLSCAASGRIFTRYAMGWYRKEPGKERELVAAISYGGGGTYYADSVKGRFTISRDNAKNTVYLQMNSLKPEDTAVYYCATDDPLSQINEQGMDYWGQGTQVTVSS”, the “polyreactivity (PSR sort gate)” value was “low polyreactivity”.
In the case of “QVQLVESGGGLVQAGGSLRLSCAASGRIFDINAMGWYRQAPGKESELVAAISRGGSTYYADSVKGRFTISRDNAKHTVDLQMNSLKPQDTAVYYCNKYRYRGSTVFDGYDYWGQGTQVTVSS”, the “polyreactivity (PSR sort gate)” value is reported as “high polyreactivity”.
For “QVQLVESGGGLVQAGGSLRLSCAASGSIFNTYAMGWYRQAPGKEREFVASITYRGSNTYYADSVKGRFTISRDNAKNTVYLQMNSLKPEDTAVYDCAADSFDYRPEYDYWGQGTQVTVSS”, the “polyreactivity (PSR sort gate)” value was “low polyreactivity”.
For “QVQLVESGGRLVQAGVSLRLSCAAGGRTFGINAMGWYRQAPGKERELVARIRKTVGSTYYADSVKGRFTISRDNAKNTVYLQMNSLKPEDTAVYYCNADYDAYPRYIRYGYWGQGTQVTVSS”, the “polyreactivity (PSR sort gate)” value was “high polyreactivity”.
In the case of “QVQLVESGGGLVQAGGSLRLSCAASGSTFRPYAMGWYRQAPGKERDLVAAISSSGGSTYYADSVKGRFTISRDNAKNTVYLQMNSLKPEDTAVYYCAAVRRYRYPEYNHWGQGTQVTVSS”, the “polyreactivity (PSR sort gate)” value is reported as “low polyreactivity”.
For “QVQLVESGGALVQAGGSLRLRCAASGTFFIYAMGWYRQAPGKEREFVATISTGGSTNYADSVKGRFTISRDNAKNTVYLQMNSLKPADTAVYYCAAEWLYPHDGGYRRPMDYWGQGTKVTVSS”, the “polyreactivity (PSR sort gate)” value was “low polyreactivity”.
In the case of “QVHLVESGGGLVQAGGSLRLSSAASGSIFDGNGMGWYRQAPGKERELVASISGDGSTNYADSVKGRFTISRDNAKNTVYLQMNSLKPEDTAVYYCNARSYLTRPWWWGGPYDYWGQGTKVTVSS”, the “polyreactivity (PSR sort gate)” value is reported as “low polyreactivity”.
In the case of “QVQLVESGGGLVQAGGSLRLICAASGLTFFRNAMGWYRQAPGKEREFVAGITSTDGSTYYADSVKGRFTISRDNAKNTVYLQMNSLKPEDTAVYYCAAAYRVRGRTYDSWGQGTQVTVSS”, the “polyreactivity (PSR sort gate)” value is reported as “high polyreactivity”.
With “QVQLVESGGGLVQAGGSLRLSCAASGRIFFTYTMGWYRQAPVNERELVAAITGGGARTYYADSVKVRFTISRDYAKNTVYLQMNSLKPEDSAVYYCAKGWQRIGFYYWGQGTQVTVSS” the “polyreactivity (PSR sort gate)” value was “high polyreactivity”.
For “QVQLGESGGGLVQAGGSLRLSCAGSGRTFVRSARGWSSQAPGKARELVARITSRGTSTYYADSVKGRFTSSRDNAKNTDYLLMNSLNPEDNAVYYCNNVRTFRDNSRYDYWGQGTHVTVSS”, the “polyreactivity (PSR sort gate)” value was “low polyreactivity”.
In the case of “QVQLVESGGGLVQAGGSLRLSCAASGIIFFKYAKGWYRQAPGKEKELVAAITSGGSTYYADSVKGRFTISRDNAKHTVYLQMNSLKPEDTAFYYCAAAGGRFIRYGYWGQGTQVTVSS”, the “polyreactivity (PSR sort gate)” value is reported as “high polyreactivity”.
For “QVQLVESGGGLVQAGGSLRLSCAPSGSTFNFNAMGWYRQAPGKERELVAAISKSGTRTYYADSVKGRFTISRDNAKNTVYLQMNSLKPEDTAVYYCAAPAISSYDHGYWGQGTQVTVSS”, the “polyreactivity (PSR sort gate)” value was “high polyreactivity”.
With “QVQLVESGGGLVQAGGSLRLSCAASGSTIVVNAMGWSRQAPGKERELVASISWTTGSTYYADSVKGRFTISRDNAKNTVFLQMNSLKPEDTAVYYCAADILPRYSQFDYWGQGTQVTVSS” the “polyreactivity (PSR sort gate)” value was “low polyreactivity”.
In the case of “QVQLVESGGGLVQAGGSLRLSCAASGRIFGWYAMGWYRQAPGKERELVAAITSGSRTSYADSVKGRFTISRDNAKNTVYLQMNSLKPVDTAVYYCNRVSHLDYYWGQGTQVTVSS”, the “polyreactivity (PSR sort gate)” value is reported as “high polyreactivity”.
With “QVQLVESGGGLVQAGGSLRLSCAASGRIFWTNAMGWYRQAPGKERELVAAISYRGGRTYYADSVKGRFTISRDNAKNTVYLQMNSLKPEDTAVYYCAAFTAQGPKYDYWGQGTQVTVSS” the “polyreactivity (PSR sort gate)” value was “high polyreactivity”.
With “QVQLVESGGGLVQAGRSLRLSCAASGSTFYAYTMGWYRKAPGKERELVAGISRRGGTTYYADSVKGRFTISRDNAKNTVYLQMNSLKPEDTAVYHCATRSWELGDYWGQGTQVTVSS” the “polyreactivity (PSR sort gate)” value was “low polyreactivity”.
